From US20040143095A1 (RESEARCH DEVELOPMENT FOUNDATION, published 2004)
Where no end group is shown, it is not given here.

T1: human CRF receptor type 1 (human, UniProt P34998 24-415)
T1 sequence (looked up): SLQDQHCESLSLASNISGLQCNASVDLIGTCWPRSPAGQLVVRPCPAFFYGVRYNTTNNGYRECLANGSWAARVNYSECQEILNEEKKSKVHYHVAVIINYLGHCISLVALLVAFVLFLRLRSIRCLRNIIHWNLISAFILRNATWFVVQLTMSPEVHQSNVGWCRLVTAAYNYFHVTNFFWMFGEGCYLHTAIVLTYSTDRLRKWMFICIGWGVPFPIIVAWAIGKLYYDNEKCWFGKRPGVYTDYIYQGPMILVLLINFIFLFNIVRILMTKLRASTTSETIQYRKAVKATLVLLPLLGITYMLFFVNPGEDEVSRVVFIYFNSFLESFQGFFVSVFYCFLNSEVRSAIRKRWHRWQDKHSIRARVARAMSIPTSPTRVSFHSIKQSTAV

T2: endogenous CRF-R1 of primary rat anterior pituitary cells (rat, UniProt P35353 24-415)
T2 sequence (looked up): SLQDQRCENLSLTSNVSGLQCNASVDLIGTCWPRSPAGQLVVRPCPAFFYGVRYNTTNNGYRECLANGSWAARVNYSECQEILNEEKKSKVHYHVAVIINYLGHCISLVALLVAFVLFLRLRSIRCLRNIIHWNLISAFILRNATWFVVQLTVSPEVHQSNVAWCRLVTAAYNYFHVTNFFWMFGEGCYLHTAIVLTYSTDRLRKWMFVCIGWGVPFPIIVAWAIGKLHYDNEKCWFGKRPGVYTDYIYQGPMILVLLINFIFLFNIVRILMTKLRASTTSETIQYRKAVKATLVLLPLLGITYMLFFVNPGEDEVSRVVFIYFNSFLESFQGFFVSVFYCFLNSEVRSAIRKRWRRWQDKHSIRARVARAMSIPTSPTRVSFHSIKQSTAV


Tests used:
[1] = biological target: T1, human CRF receptor type 1; assay: cell-based or functional assay
[2] = biological target: T2, endogenous CRF-R1 of primary rat …; assay: cell-based or functional assay

Binder | cAMP in CHO cells stably expressing hCRF-R1 (EC50, nM) [1] [nM] | cAMP accumulation in primary rat anterior pituitary cells, EC50 [2] [nM]
FTLSLDVPTNIMNLLFNIAKAKNLRAQAAANAHLMAQI-NH2 [Urocortin III (human)] | > 100 | 
VILSLDVPIGLLRILLEQARYKAARNQAATNAQILAHV (peptide, UniProt Q99ML8 73-110, looked up) [Urocortin II (mouse)] | > 100 | 
FTLSLDVPTNIMNILFNIDKAKNLRAKAAANAQLMAQI-NH2 [Urocortin III (mouse)] | > 100 | 
DDPPLSIDLTFHLLRTLLELARTQSQRERAEQNRIIFDSV (peptide, UniProt P55090 81-120, looked up) [Urocortin (rat)] |  | 2.3
IVLSLDVPIGLLQILLEQARARAAREQATTNARILARV (peptide, UniProt Q96RP3 72-109, looked up) [Urocortin II (human)] | > 100 | 
